Source: patent US20260167721A1 (ABLEXIS, published 2026)

Columns and labels:
CD33 on KILR-HL60 cells [1] = biological target: T1, CD33 on KILR-HL60 cells (UniProt P20138 18-364, limits assumed); experiment: flow cytometry on KILR-HL60 (CD33 expressing) cells, antibody at 1 ug/ml
T1 construct: whole, on cells; Target of the gemtuzumab arm; also called CD33 expressing cells

[2] = biological target: T2, CD3 on Jurkat wild-type cells (UniProt P07766 23-207; P04234 22-171; P09693 23-182); experiment: flow cytometry on Jurkat WT cells, antibody at 1 ug/ml
T2 construct: whole, on cells; also called Jurkat WT

CD33 on KILR-HL60 cells [3] = biological target: T1, CD33 on KILR-HL60 cells; experiment: flow cytometry on KILR-HL60 (CD33 expressing) cells, antibody at 10 ug/ml
[4] = biological target: T2, CD3 on Jurkat wild-type cells; experiment: flow cytometry on Jurkat WT cells, antibody at 10 ug/ml

T1 sequence (P20138 18-364 limits assumed): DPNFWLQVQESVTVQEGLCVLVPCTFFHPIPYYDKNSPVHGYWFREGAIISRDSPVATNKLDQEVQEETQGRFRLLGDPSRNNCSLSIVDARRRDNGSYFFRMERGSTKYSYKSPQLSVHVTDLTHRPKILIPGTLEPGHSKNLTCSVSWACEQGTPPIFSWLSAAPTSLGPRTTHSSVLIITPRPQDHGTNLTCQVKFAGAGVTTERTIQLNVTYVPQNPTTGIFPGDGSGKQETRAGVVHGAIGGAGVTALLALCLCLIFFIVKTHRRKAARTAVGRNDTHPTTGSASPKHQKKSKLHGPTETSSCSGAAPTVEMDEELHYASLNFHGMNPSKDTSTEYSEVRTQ
T2 sequence (P07766 23-207, chain 1 of 3): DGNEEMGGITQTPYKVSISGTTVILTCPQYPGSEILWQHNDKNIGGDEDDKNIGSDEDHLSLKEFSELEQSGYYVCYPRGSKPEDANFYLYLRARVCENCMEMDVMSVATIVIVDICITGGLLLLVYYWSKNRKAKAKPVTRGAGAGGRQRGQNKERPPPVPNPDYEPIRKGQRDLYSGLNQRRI
T2 sequence (P04234 22-171, chain 2 of 3): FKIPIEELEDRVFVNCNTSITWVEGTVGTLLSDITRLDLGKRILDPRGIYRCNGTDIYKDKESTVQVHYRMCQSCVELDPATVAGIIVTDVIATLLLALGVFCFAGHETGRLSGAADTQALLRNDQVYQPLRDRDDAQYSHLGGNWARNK
T2 sequence (P09693 23-182, chain 3 of 3): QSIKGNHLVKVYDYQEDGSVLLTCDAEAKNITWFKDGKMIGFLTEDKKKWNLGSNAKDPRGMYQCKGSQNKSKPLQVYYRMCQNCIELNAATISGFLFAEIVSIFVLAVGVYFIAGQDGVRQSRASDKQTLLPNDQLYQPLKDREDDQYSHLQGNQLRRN

B1: CD3 × CD33-BspAb48 (bispecific antibody)
chain 1: QVTLKESGPGILQPSQTLSLTCSFSGFSLSTFGMGVGWIRQPSGKCLEWLAHIWWDDDKYYNPALKSRLTISKDTSKNQVFLKIANVDTADTATYYCARLGYYPYWFFDVWGTGTTVTVSSGGGGSGGGGSGGGGSGGGGSNFMLTQPHSVSESPGKTVTIACTRSSGSIASNYVQWYQQRPGSSPTTVIYEDNQRPSGVPDRFSGSIDSSSNSASLTISGLKTEDEADYYCQSYDSSNQVFGCGTKLTVLDKTHTCPPCPAPEFEGGPSVFLFPPKPKDTLMISRTPEVTCVVVDVSHEDPEVKFNWYVDGVEVHNAKTKPREEQYNSTYRVVSVLTVLHQDWLNGKEYKCKVSNKALPASIEKTISKAKGQPREPQVYTLPPCREEMTKNQVSLWCLVKGFYPSDIAVEWESNGQPENNYKTTPPVLDSDGSFFLYSKLTVDKSRWQQGNVFSCSVMHEALHNHYTQKSLSLSPGK
chain 2: EVQLVQSGAEVKKPGSSVKVSCKASGYTITDSNIHWVRQAPGQSLEWIGYIYPYNGGTDYNQKFKNRATLTVDNPTNTAYMELSSLRSEDTAFYYCVNGNPWLAYWGQGTLVTVSSASTKGPSVFPLAPSSKSTSGGTAALGCLVKDYFPEPVTVSWNSGALTSGVHTFPAVLQSSGLYSLSSVVTVPSSSLGTQTYICNVNHKPSNTKVDKRVEPKSCDKTHTCPPCPAPEFEGGPSVFLFPPKPKDTLMISRTPEVTCVVVDVSHEDPEVKFNWYVDGVEVHNAKTKPREEQYNSTYRVVSVLTVLHQDWLNGKEYKCKVSNKALPASIEKTISKAKGQPREPQVCTLPPSREEMTKNQVSLSCAVKGFYPSDIAVEWESNGQPENNYKTTPPVLDSDGSFFLVSKLTVDKSRWQQGNVFSCSVMHEALHNRFTQKSLSLSPGK
chain 3: DIQLTQSPSTLSASVGDRVTITCRASESLDNYGIRFLTWFQQKPGKAPKLLMYAASNQGSGVPSRFSGSGSGTEFTLTISSLQPDDFATYYCQQTKEVPWSFGQGTKVEVKRTVAAPSVFIFPPSDEQLKSGTASVVCLLNNFYPREAKVQWKVDNALQSGNSQESVTEQDSKDSTYSLSSTLTLSKADYEKHKVYACEVTHQGLSSPVTKSFNRGEC
With B1 the flow cytometry signal (CD33 on KILR-HL60 cells [1]) was 566000, the flow cytometry signal [2] was 4140 and the flow cytometry signal (CD33 on KILR-HL60 cells [3]) was 483000. For the same binder, the flow cytometry signal [4] was 10800.

B2: CD3 × CD33-BspAb50 (bispecific antibody)
scFv-Fc: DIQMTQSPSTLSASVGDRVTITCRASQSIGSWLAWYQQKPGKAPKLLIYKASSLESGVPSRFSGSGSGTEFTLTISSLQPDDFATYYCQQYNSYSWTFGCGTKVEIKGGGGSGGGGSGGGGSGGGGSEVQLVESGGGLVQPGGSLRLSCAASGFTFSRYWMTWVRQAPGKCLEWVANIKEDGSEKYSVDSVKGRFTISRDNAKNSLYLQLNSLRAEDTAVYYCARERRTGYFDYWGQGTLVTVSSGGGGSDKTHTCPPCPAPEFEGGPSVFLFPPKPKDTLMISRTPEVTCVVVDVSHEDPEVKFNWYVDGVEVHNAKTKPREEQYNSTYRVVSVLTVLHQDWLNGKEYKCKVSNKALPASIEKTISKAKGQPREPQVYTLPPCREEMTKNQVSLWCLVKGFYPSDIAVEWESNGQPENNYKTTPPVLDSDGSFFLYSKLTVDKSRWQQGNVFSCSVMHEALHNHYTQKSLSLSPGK
heavy: EVQLVQSGAEVKKPGSSVKVSCKASGYTITDSNIHWVRQAPGQSLEWIGYIYPYNGGTDYNQKFKNRATLTVDNPTNTAYMELSSLRSEDTAFYYCVNGNPWLAYWGQGTLVTVSSASTKGPSVFPLAPSSKSTSGGTAALGCLVKDYFPEPVTVSWNSGALTSGVHTFPAVLQSSGLYSLSSVVTVPSSSLGTQTYICNVNHKPSNTKVDKRVEPKSCDKTHTCPPCPAPEFEGGPSVFLFPPKPKDTLMISRTPEVTCVVVDVSHEDPEVKFNWYVDGVEVHNAKTKPREEQYNSTYRVVSVLTVLHQDWLNGKEYKCKVSNKALPASIEKTISKAKGQPREPQVCTLPPSREEMTKNQVSLSCAVKGFYPSDIAVEWESNGQPENNYKTTPPVLDSDGSFFLVSKLTVDKSRWQQGNVFSCSVMHEALHNRFTQKSLSLSPGK
light: DIQLTQSPSTLSASVGDRVTITCRASESLDNYGIRFLTWFQQKPGKAPKLLMYAASNQGSGVPSRFSGSGSGTEFTLTISSLQPDDFATYYCQQTKEVPWSFGQGTKVEVKRTVAAPSVFIFPPSDEQLKSGTASVVCLLNNFYPREAKVQWKVDNALQSGNSQESVTEQDSKDSTYSLSSTLTLSKADYEKHKVYACEVTHQGLSSPVTKSFNRGEC
For B2, the flow cytometry signal (CD33 on KILR-HL60 cells [1]) was 475000, the flow cytometry signal [2] was 9700 and the flow cytometry signal (CD33 on KILR-HL60 cells [3]) was 465000. For the same binder, the flow cytometry signal [4] was 33900.

B3: CD3 × CD33-BspAb61 (bispecific antibody)
scFv-Fc: NFMLTQPHSVSESPGKTVTISCTRSSGSIASNYVQWYQQRPGSSPTTVIYEDNQRPSGVPDRFSGSIDSSSNSASLTISGLKTEDEADYYCQSFDNSNRVFGCGTKLTVLGGGGSGGGGSGGGGSGGGGSEVQLVESGGGLVKPGGSLRLSCAASGFTFSRYSMNWVRQAPGKCLKWVSSISSSGSYKYYADSVKGRFTISRDNAKNSLYLQMNSLRAEDTAVYYCAREPPTLGMDYWGQGTLVTVSSGGGGSDKTHTCPPCPAPEFEGGPSVFLFPPKPKDTLMISRTPEVTCVVVDVSHEDPEVKFNWYVDGVEVHNAKTKPREEQYNSTYRVVSVLTVLHQDWLNGKEYKCKVSNKALPASIEKTISKAKGQPREPQVYTLPPCREEMTKNQVSLWCLVKGFYPSDIAVEWESNGQPENNYKTTPPVLDSDGSFFLYSKLTVDKSRWQQGNVFSCSVMHEALHNHYTQKSLSLSPGK
heavy: EVQLVQSGAEVKKPGSSVKVSCKASGYTITDSNIHWVRQAPGQSLEWIGYIYPYNGGTDYNQKFKNRATLTVDNPTNTAYMELSSLRSEDTAFYYCVNGNPWLAYWGQGTLVTVSSASTKGPSVFPLAPSSKSTSGGTAALGCLVKDYFPEPVTVSWNSGALTSGVHTFPAVLQSSGLYSLSSVVTVPSSSLGTQTYICNVNHKPSNTKVDKRVEPKSCDKTHTCPPCPAPEFEGGPSVFLFPPKPKDTLMISRTPEVTCVVVDVSHEDPEVKFNWYVDGVEVHNAKTKPREEQYNSTYRVVSVLTVLHQDWLNGKEYKCKVSNKALPASIEKTISKAKGQPREPQVCTLPPSREEMTKNQVSLSCAVKGFYPSDIAVEWESNGQPENNYKTTPPVLDSDGSFFLVSKLTVDKSRWQQGNVFSCSVMHEALHNRFTQKSLSLSPGK
light: DIQLTQSPSTLSASVGDRVTITCRASESLDNYGIRFLTWFQQKPGKAPKLLMYAASNQGSGVPSRFSGSGSGTEFTLTISSLQPDDFATYYCQQTKEVPWSFGQGTKVEVKRTVAAPSVFIFPPSDEQLKSGTASVVCLLNNFYPREAKVQWKVDNALQSGNSQESVTEQDSKDSTYSLSSTLTLSKADYEKHKVYACEVTHQGLSSPVTKSFNRGEC
In the case of B3, the flow cytometry signal (CD33 on KILR-HL60 cells [1]) is reported as 621000, the flow cytometry signal [2] is reported as 95600 and the flow cytometry signal (CD33 on KILR-HL60 cells [3]) is reported as 538000. It also gave a flow cytometry signal [4] of 84800.

B4: CD3 × CD33-BspAb62 (bispecific antibody)
scFv-Fc: NFMLTQPHSVSESPGKTVTISCTRSSGSIASNYVQWYQQRPGSSPTTVIYEDNQRPSGVPDRFSGSIDSSSNSASLTISGLKTEDEADYYCQSYDSSNHVFGCGTKLTVLGGGGSGGGGSGGGGSGGGGSEVQLVESGGGLVQPGGSLRLSCAASGFTFSRYSMNWVRQAPGKCLEWVSYISSSSSSIYYADSVKGRFTISRDNAKNSLYLQMNSLRDEDTAVYYCARDRRATLDYWGQGTLVTVSSGGGGSDKTHTCPPCPAPEFEGGPSVFLFPPKPKDTLMISRTPEVTCVVVDVSHEDPEVKFNWYVDGVEVHNAKTKPREEQYNSTYRVVSVLTVLHQDWLNGKEYKCKVSNKALPASIEKTISKAKGQPREPQVYTLPPCREEMTKNQVSLWCLVKGFYPSDIAVEWESNGQPENNYKTTPPVLDSDGSFFLYSKLTVDKSRWQQGNVFSCSVMHEALHNHYTQKSLSLSPGK
heavy: EVQLVQSGAEVKKPGSSVKVSCKASGYTITDSNIHWVRQAPGQSLEWIGYIYPYNGGTDYNQKFKNRATLTVDNPTNTAYMELSSLRSEDTAFYYCVNGNPWLAYWGQGTLVTVSSASTKGPSVFPLAPSSKSTSGGTAALGCLVKDYFPEPVTVSWNSGALTSGVHTFPAVLQSSGLYSLSSVVTVPSSSLGTQTYICNVNHKPSNTKVDKRVEPKSCDKTHTCPPCPAPEFEGGPSVFLFPPKPKDTLMISRTPEVTCVVVDVSHEDPEVKFNWYVDGVEVHNAKTKPREEQYNSTYRVVSVLTVLHQDWLNGKEYKCKVSNKALPASIEKTISKAKGQPREPQVCTLPPSREEMTKNQVSLSCAVKGFYPSDIAVEWESNGQPENNYKTTPPVLDSDGSFFLVSKLTVDKSRWQQGNVFSCSVMHEALHNRFTQKSLSLSPGK
light: DIQLTQSPSTLSASVGDRVTITCRASESLDNYGIRFLTWFQQKPGKAPKLLMYAASNQGSGVPSRFSGSGSGTEFTLTISSLQPDDFATYYCQQTKEVPWSFGQGTKVEVKRTVAAPSVFIFPPSDEQLKSGTASVVCLLNNFYPREAKVQWKVDNALQSGNSQESVTEQDSKDSTYSLSSTLTLSKADYEKHKVYACEVTHQGLSSPVTKSFNRGEC
Binder B4 has a flow cytometry signal (CD33 on KILR-HL60 cells [1]) of 295000, a flow cytometry signal [2] of 62500 and a flow cytometry signal (CD33 on KILR-HL60 cells [3]) of 595000. For the same binder, the flow cytometry signal [4] was 59000.
